Measured values: the supplement of paper PMC10126150
± gives the standard deviation of the averaged measurements.

System: ATP
Test: switch fluorescence ratio, 500 uM ATP over buffer (Cy3 cluster intensity, sum of 5 cycles each) (fold (ratio)); higher = stronger signal-on switching upon ATP binding; sequences stand for … in TCGTCGGCAGCGTCAGATGTGTATAAGAGACAGTTTTTTTTTTTTTTTTTTTTTTTTT…TC
Conditions: aptamer strand: ATP DNA aptamer (quencher-CACCTGGGGGAGTATTGCGGAGGAAGG + anchor), 100 nM annealed; ATP concentration: 500 uM
Outline: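 For every switch-domain sequence, the fluorescence ratio is the mean of per-cluster values, each being summed target-cycle Cy3 intensity over summed buffer-cycle Cy3 intensity. Clusters outside 100-1000 RFU were excluded. On a modified Illumina MiSeq flow-cell, the Cy3-labelled switching-strand clusters were annealed to 100 nM quencher-labelled ATP aptamer, imaged in selection buffer and then after 15 min with 500 uM ATP at 22 °C. Five such cycles were run, with NaOH stripping and re-annealing between them.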
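Further: ATP exposure 15 min at 22 °C before imaging.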

| Sequence | switch fluorescence ratio |
| --- | --- |
| GGGGGGCGTG | 0.993 ± 0.027 |
| GGGGGGAAAA | 0.986 ± 0.025 |
| CACTTGGAGC | 0.944 ± 0.059 |
| GTTCTATATT | 0.986 ± 0.062 |
| AACTTTTTAA | 1.01 ± 0.012 |
| TGTAAAGATT | 1.0093 ± 0.00041 |
| GGGGAACTGG | 1.01 ± 0.023 |
| AAGCGTTTTT | 1.018 ± 0.0045 |
| GAACTCGGCG | 1.02 ± 0.031 |
| AACCTTAGGA | 1.05 ± 0.017 |
| GCGGAGGGTG | 1.028 ± 0.0092 |
| ATGGGGAATA | 1.03 ± 0.0059 |
| TTGAGGTAGT | 0.984 ± 0.014 |
| ACTGCCATCG | 1.1 ± 0.023 |
| AATGGGGTAT | 1.02 ± 0.018 |
| ATGTGGATTT | 0.988 ± 0.023 |
| AGGGAATCGT | 0.9953 ± 0.0013 |
| GGGATATTTT | 0.977 ± 0.018 |
| GGGTACTTAG | 1.05 ± 0.041 |
| GCTGACTTGG | 0.9714 ± 0.0081 |
| CCGTGCGAAA | 2.99 ± 0.59 |
| AGCAAACTTG | 1.04 ± 0.049 |
| GGAAAAGGTT | 0.9955 ± 0.0073 |
| ATTCTTCGC | 1.06 ± 0.011 |
| GAACGAAGCA | 1.84 ± 0.051 |

| Sequence | switch fluorescence ratio |
| --- | --- |
| ACGACTAGGT | 1.102 ± 0.008 |
| TGGAAAGTGG | 0.9818 ± 0.005 |
| TTTAGTGAAC | 1.025 ± 0.0089 |
| GAGATCGGGG | 1 ± 0.03 |
| CTGATGAGTT | 0.982 ± 0.019 |
| TCGGTCACCA | 1.05 ± 0.028 |
| CGATGTAGTT | 0.995 ± 0.014 |
| GCGATGGCTG | 0.957 ± 0.015 |
| TTTCGGGCGG | 0.999 ± 0.038 |
| CCTGGGATT | 1.02 ± 0.011 |
| TATTAGGCAT | 1.15 ± 0.23 |
| GGGTTGTGAA | 0.994 ± 0.037 |
| GCCCATTTTT | 0.978 ± 0.011 |
| TTACTGAAAA | 1.04 ± 0.025 |
| CGCGCTGCTG | 1.03 ± 0.029 |
| GGGGGTAGCG | 1.02 ± 0.028 |
| TTTAGGACGA | 0.981 ± 0.017 |
| TGGATTTTTG | 0.9666 ± 0.0042 |
| AAGTCATTTG | 1.017 ± 0.0088 |
| GTTGACCGGC | 0.996 ± 0.011 |
| TACGTGGTAG | 1.06 ± 0.05 |
| AGGTTTTTGA | 0.991 ± 0.04 |
| CGGTGGTGGG | 1.031 ± 0.0066 |
| TGTAAAGGAA | 0.992 ± 0.024 |
| GGAATTTGTT | 1 ± 0.021 |

| Sequence | switch fluorescence ratio |
| --- | --- |
| AGCGAAATTT | 1.04 ± 0.023 |
| TAAATTAGGA | 0.988 ± 0.074 |
| AGATTGTTGG | 0.989 ± 0.019 |
| GGGTCTTGTG | 0.989 ± 0.022 |
| TTAAGCTCGC | 0.986 ± 0.045 |
| TGGGTTAAGT | 1 ± 0.021 |
| TGCTTGTTAC | 1.03 ± 0.018 |
| GGGTGAACTT | 0.988 ± 0.033 |
| ACTTGTGGGC | 0.973 ± 0.045 |
| TTGAGGGTGG | 1.0305 ± 0.0005 |
| GTGGAAATCA | 1.01 ± 0.029 |
| TAGTGGCAGC | 0.9797 ± 0.0053 |
| AAGTGTTTT | 1.016 ± 0.005 |
| ATGTGGGGGT | 0.994 ± 0.029 |
| ATTTTGTCTC | 1.01 ± 0.013 |
| CTCGGCCACT | 2.26 ± 1.6 |
| AGTACGTTGG | 0.966 ± 0.034 |
| TATCTGCTAC | 3.67 ± 0.7 |
| AAAGGTCTGA | 0.98 ± 0.0099 |
| AAATTGTCGT | 0.977 ± 0.042 |
| ACAGCGTGGG | 1.041 ± 0.0097 |
| GAGCGAAAGG | 0.991 ± 0.025 |
| GTTGGGTATA | 0.996 ± 0.014 |
| GTGTTCATGG | 1 ± 0.012 |
| TTGCCTTCTT | 1.03 ± 0.033 |

| Sequence | switch fluorescence ratio |
| --- | --- |
| TCAGTTTAGC | 1.01 ± 0.016 |
| TGGGGTGTTG | 0.983 ± 0.011 |
| CAATTCGTAA | 1.11 ± 0.018 |
| AGCGCCTTTG | 0.9905 ± 0.0024 |
| TAGGGGCCTA | 0.995 ± 0.011 |
| CAGTTGGGAT | 0.969 ± 0.026 |
| TCACGCTTCA | 1.12 ± 0.033 |
| TTGCGACCTG | 1.05 ± 0.04 |
| TTTTTTACGA | 1.04 ± 0.028 |
| ATTTAGTTTT | 0.976 ± 0.013 |
| ACCGAGGAGG | 0.961 ± 0.026 |
| TCGGTAAATT | 1.05 ± 0.014 |
| AAGTAAAAAT | 1.05 ± 0.036 |
| CTTATAGCAT | 1.096 ± 0.0085 |
| ATGAGGTTTT | 0.991 ± 0.012 |
| GGAGGAGATA | 0.995 ± 0.02 |
| CGAAAATGGG | 0.9772 ± 0.0058 |
| AGAAGATTGA | 0.999 ± 0.019 |
| TTGAGCAAGT | 1.14 ± 0.075 |
| ACGAACGTTG | 1.26 ± 0.089 |
| TATAGGCCTC | 1.001 ± 0.0064 |
| CCGAGACCGC | 2.71 ± 0.2 |
| AGACAGGGGG | 1.11 ± 0.2 |
| GCTCGAAATG | 1.07 ± 0.031 |
| TTGGGTTCCG | 0.996 ± 0.057 |

| Sequence | switch fluorescence ratio |
| --- | --- |
| TAGCTTATAA | 1.08 ± 0.024 |
| GAGAGATCG | 0.982 ± 0.021 |
| ACGTGTTCAT | 0.983 ± 0.018 |
| GCGTGGGGCG | 0.996 ± 0.011 |
| CGGAAAGAAG | 0.989 ± 0.046 |
| CTTGGGAGAA | 0.9961 ± 0.0032 |
| TCGGTCAAAT | 0.977 ± 0.011 |
| GGAGTTTGGG | 0.994 ± 0.039 |
| TCGTTAGGGG | 0.999 ± 0.019 |
| TGTCCTGGCT | 1.02 ± 0.067 |
| AATATGAGAT | 0.9799 ± 0.0073 |
| ATGAGATAGG | 0.982 ± 0.045 |
| TTTGCACGTA | 0.991 ± 0.084 |
| TCATAGGATT | 0.995 ± 0.04 |
| GGGGTATAGG | 0.9746 ± 0.008 |
| AAATCGGTGT | 1 ± 0.037 |
| TGAATTGGGG | 1.06 ± 0.084 |
| CAGAGGAAGT | 1.02 ± 0.04 |
| TAAGGGGGGG | 1 ± 0.029 |
| ATGTAGGGG | 1 ± 0.022 |
| CAAGGCTTGA | 0.974 ± 0.022 |
| TTGAGGCGAT | 1.23 ± 0.22 |
| TTTTTTTATA | 0.991 ± 0.024 |
| TAACGGCATC | 1.08 ± 0.036 |
| TTTCGGTAGT | 0.995 ± 0.026 |

| Sequence | switch fluorescence ratio |
| --- | --- |
| GGCAAAGGAC | 1.08 ± 0.027 |
| CGTGTTTGCC | 1 ± 0.02 |
| GGTTTGGATC | 1.02 ± 0.018 |
| TGCGAGGGTG | 1.02 ± 0.065 |
| TGCATGAAGC | 1.034 ± 0.0057 |
| CGGCACGTGG | 0.998 ± 0.021 |
| TCTATTGAGC | 1.032 ± 0.0049 |
| GTAAGGGATT | 1.025 ± 0.0068 |
| CGGGTGGCGG | 0.994 ± 0.012 |
| CTTTGGCCGG | 1.011 ± 0.0087 |
| TCGCGGTGGC | 1 ± 0.029 |
| TGGGGGTACG | 1.028 ± 0.0016 |
| ACGAGGGCGT | 1.03 ± 0.017 |
| CGTGTACTTA | 1.03 ± 0.01 |
| CATTGGGTTT | 0.975 ± 0.052 |
| TTAGACTCTG | 1.05 ± 0.071 |
| TCAAAAGGGA | 1.02 ± 0.041 |
| AATAGTGGCA | 1.02 ± 0.044 |
| CGGGCATCGA | 0.995 ± 0.061 |
| TCCGTCGGGG | 1.01 ± 0.033 |
| TGGCGTGGGG | 1.01 ± 0.021 |
| TTACCTTTGT | 1.05 ± 0.024 |
| TTTTTCGGTT | 0.998 ± 0.039 |
| GAAGCCGGAC | 1.12 ± 0.035 |
| CTATCGGGGT | 0.993 ± 0.015 |

| Sequence | switch fluorescence ratio |
| --- | --- |
| AAGGTTAATT | 1 ± 0.022 |
| TATTGTTGTT | 0.9949 ± 0.0063 |
| GGAAGGGGGA | 1.07 ± 0.096 |
| CGGGTTTGTC | 1 ± 0.035 |
| CAAGGGGATT | 1 ± 0.027 |
| TAGTTGCTCA | 0.993 ± 0.046 |
| GATGTCTGGG | 0.959 ± 0.027 |
| CAAATTTGG | 1.05 ± 0.031 |
| AAATGCTATG | 1.01 ± 0.031 |
| TCATTCCATT | 0.988 ± 0.031 |
| TTGAAGCGGA | 1.03 ± 0.03 |
| GGGGGATTTA | 0.992 ± 0.022 |
| TGGGCGCATT | 1.68 ± 0.88 |
| AAACGGCGGC | 1.05 ± 0.041 |
| GAGTAAGATT | 1.02 ± 0.025 |
| GGCCCCCGGC | 0.969 ± 0.026 |
| TTTTATTATT | 0.967 ± 0.01 |
| CATGGGGGGT | 0.994 ± 0.014 |
| TGTTGGAGGC | 0.9713 ± 0.0072 |
| GAGTATACGT | 1.022 ± 0.0048 |
| TTGGGATTGT | 0.989 ± 0.014 |
| TCCAGGGTAA | 1.0425 ± 0.00073 |
| GTGGGATTTT | 0.986 ± 0.062 |
| CCTATGGTTC | 1.07 ± 0.053 |
| GAGTGTTGGT | 1 ± 0.022 |

| Sequence | switch fluorescence ratio |
| --- | --- |
| AATTGATCGT | 0.982 ± 0.024 |
| GGTCGTCTGC | 0.984 ± 0.018 |
| TACTGCTCTA | 1.022 ± 0.01 |
| CGTAACCTTG | 1.023 ± 0.0071 |
| GGCGAAAGGG | 1.02 ± 0.026 |
| GGGTTTTACT | 0.991 ± 0.053 |
| GCAGGACGGA | 1.03 ± 0.04 |
| TGGGCAGATA | 1.08 ± 0.1 |
| TTCAGCCCGG | 0.986 ± 0.056 |
| TTTAGCGTCA | 0.9891 ± 0.0056 |
| TTTAGGATCC | 0.983 ± 0.022 |
| CCTCAATGGT | 1.39 ± 0.045 |
| GGAGTTAAGT | 0.987 ± 0.043 |
| ATGTAGTACG | 1 ± 0.02 |
| TAGTTATCGA | 0.997 ± 0.0069 |
| CTATTTCTGA | 0.931 ± 0.027 |
| TGGGCATAAA | 1.006 ± 0.0012 |
| TTTAACGTCA | 1.05 ± 0.023 |
| TTATGGGGGT | 1.01 ± 0.03 |
| AAGGCACCGT | 1.03 ± 0.038 |
| TTCACATACG | 1.51 ± 0.03 |
| TTATATTCCT | 1.11 ± 0.048 |
| GGGGACGGTA | 1.03 ± 0.027 |
| TCGCGCTATT | 1.34 ± 0.39 |
| AGGGGGGCGA | 1.01 ± 0.029 |
